Measurements taken from US20210198672A1, “APTAMER FOR SCLEROSTIN AND USE THEREOF” (APTACURE THERAPEUTICS LIMITED, published 2021).
Substitutions are numbered along the chain they refer to.

B1: aptscl 9 (ssDNA)
DNA: CGTACGGTCGACGCTAGCTGGGGGTAGGGGGACCCTGGCTAGTTAGTCACCGTTTCGACACGTGGAGCTCGGATCC
B2: aptscl 6 (ssDNA)
DNA: CGTACGGTCGACGCTAGCTGGAAGGGTGGGGGCGGGGGGTCCTCGCCTCGAACGTACGCACGTGGAGCTCGGATCC
B3: aptscl 22 (ssDNA)
DNA: CGTACGGTCGACGCTAGCTGGGTTTATCGACTAGTTCCACGTGGAGCTCGGATCC
B4: aptscl 51 (ssDNA)
DNA: CGTACGGTCGACGCTAGCTGGGGGTAGGGGGTCCTTGGCTACGGTGATTCGGATGTGACACGTGGAGCTCGGATCC
B5: aptscl 29 (ssDNA)
DNA: CGTACGGTCGACGCTAGCCGGAGACCTGAGGTTCACGTGGAGCTCGGATCC
B6: aptscl 5 (ssDNA)
DNA: CGTACGGTCGACGCTAGCTGTTGTTCATCGACTTGACGCACGTGGAGCTCGGATCC
B7: aptscl 1 (ssDNA)
DNA: B6 DNA with G20C, C32T, T33C, T34C, G35T
B8: aptscl 12 (ssDNA)
DNA: CGTACGGTCGACGCTAGCCGTTGACTCGTTGCTACACGTGGAGCTCGGATCC
B9: aptscl 2 (ssDNA)
DNA: CGTACGGTCGACGCTAGCCAGCCAAAGACAGAGATGCACGTGGAGCTCGGATCC
B10: aptscl 132 (ssDNA)
DNA: CCCAGACGAGACACCTCATGCTTTTCCCCGGGGGAGGGGTAT
B11: aptscl 32 (ssDNA)
DNA: CGTACGGTCGACGCTAGCTGTGTTAATCGCCGTACCTCCACGTGGAGCTCGGATCC
B12: aptscl 8 (ssDNA)
DNA: CGTACGGTCGACGCTAGCCGGCGAAATTGCTACCACGTGGAGCTCGGATCC
B13: aptscl 3-5 (ssDNA)
DNA: GCTAGCTGTTGTACATCGCCTTACGCACGTG
B14: aptscl 3-1 (ssDNA)
DNA: GTCGACGCTAGCTGTTGTACATCGCCTTACGCACGTGGAGCTCGGATCC
B15: aptscl 3-4 (ssDNA)
DNA: GTCGACGCTAGCTGTTGTACATCGCCTTACGCACGTG
B16: aptscl 3-2 (ssDNA)
DNA: CGTACGGTCGACGCTAGCTGTTGTACATCGCCTTACGCACGTGGAGCTC
B17: aptscl 3-3 (ssDNA)
DNA: GCTAGCTGTTGTACATCGCCTTACGCACGTGGAGCTC
B18: aptscl 56 (ssDNA)
DNA: CGGGGTGTGGGTTCGTCGTTAGCTTGATTTGGCAGCTGCC
B19: aptscl 3 (ssDNA)
DNA: CGTACGGTCGACGCTAGCTGTTGTACATCGCCTTACGCACGTGGAGCTCGGATCC
B20: modified aptscl 56 (ssDNA)
DNA: CGGGGTGTGGGTTCGTCGTTAGCTTGATTTGGCAGCTGCCC
modifications: 2'-OMe at first four (CGGG) and last four (GCCC) nucleotides; 3' idT
B21: modified aptscl 3-5 (ssDNA)
DNA: B13 DNA
modifications: 2'-OMe at first four (GCTA) and last four (CGTG) nucleotides; 3' idT

Target: T1, sclerostin (SOST) (Homo sapiens, UniProt Q9BQB4 SEQ:1-190)
Assay: ELONA; PBS, 1 mM MgCl2, RT
Details: tags: His6 (stated for the SELEX protein); ELONA used purified recombinant human sclerostin
Experimental: (§1) An Enzyme-linked OligoNucleotide Assay (ELONA) was performed to determine the binding affinity of the aptamer candidates to sclerostin (Drolet, Moon-McDermott et al. 1996). Similarly, an Enzyme-linked ImmunoSorbent Assay (ELISA) was performed to determine the binding affinity of anti-sclerostin antibody to human sclerostin (Engvall and Perlmann 1971). 160 ng purified recombinant human sclerostin was coated to 96-well microtiter plate in 100 μl PBS by incubating at 4° C. overnight. The plate was then blocked with blocking buffer (PBS, 0.1% Tween 20 and 1% BSA) for 1 h at room temperature and washed with SELEX B&W buffer (PBS, 1 mM MgCl₂, 0.1% Tween 20 and 0.1% BSA) for 4 times. The aptamer candidates were denatured at 95° C. for 10 min and rapidly cooled on ice for 10 min before use. Appropriate concentrations of biotinylated aptamers/antibody were added into each well, then added SELEX B&W buffer to 100 μl and incubated for 45 min at room temperature with continuous gentle shaking. After binding, the plate was washed with SELEX B&W buffer for 4 times to remove non-specific and very weak binding, followed by washing with PBST+0.1% BSA for 4 times. 100 μl streptavidin-HRP/goat anti-human IgG Fc-HRP (1:10000 dilute into PBST+0.1% BSA) was added to each well and incubated for 30/60 min and washed with PBST+0.1% BSA for 4 times. 50 μl TMB was added to each well and incubated for 20 min. The reaction was stopped by adding 50 μl 2 M H₂SO₄. Absorbance at 450 nm was measured with microplate reader (Stoltenburg, Krafcikova et al. 2016). Data was analyzed with Origin software (OriginLab, Northampton, Mass.). A non-linear curve fitting model Hyperbl was used to plot is the binding curve. Equation of Hyperbl model is y=P1*x/(P2+x) and P2 is the Kd value.

T1 sequence (Q9BQB4 24-213): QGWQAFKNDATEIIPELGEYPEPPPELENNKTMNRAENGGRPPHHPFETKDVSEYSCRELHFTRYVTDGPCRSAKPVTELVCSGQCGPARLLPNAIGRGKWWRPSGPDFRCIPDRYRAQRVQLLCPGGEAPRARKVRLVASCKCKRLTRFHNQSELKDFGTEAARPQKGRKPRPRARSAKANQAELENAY

Row | Binder | Kd
1 | B1 | 3.4 nM
2 | B2 | 4.2 nM
3 | B3 | 0.76 nM
4 | B4 | 62.2 nM
5 | B5 | 0.28 nM
6 | B6 | 0.005 nM
7 | B7 | 0.02 nM
8 | B8 | 0.005 nM
9 | B9 | 0.006 nM
10 | B10 | 42.2 nM
11 | B11 | 0.18 nM
12 | B12 | 0.005 nM

Target: T2, sclerostin (SOST), expressed from plasmid in MC3T3-E1 cells (UniProt Q9BQB4 SEQ:1-190)
Assay: cell_activity; TOP-Wnt luciferase reporter, MC3T3-E1
Details: not given
Experimental: (§2) MC3T3-E1 cells were seeded in 24-well plates and cells were transfected with corresponding reporter plasmid (100 ng), Wnt3a plasmid (800 ng) and sclerostin plasmid (800 ng) as necessary using FuGENE HD transfection reagent (Promega) in the following day. 10 hours after transfection, culture medium was changed to fresh medium and cells were treated with aptamers/antibody. 24 hours after treatment, each well of cells was lysed with 100 μl passive lysis buffer and 20 μl was taken for analysis. The Luciferase Assay Reagent II and Stop & Glo Reagent were prepared and added automatically by SpectraMax i3x Multi-Mode Detection Platform (Molecular Device) according to the manufacturer's protocol (Promega) and data was analyzed accordingly (Grentzmann, Ingram et al. 1998, McNabb, Reed et al. 2005).
(§3) Binding affinity and in vitro inhibition potency were performed using the same protocols in previous studies.

T2 sequence (Q9BQB4 24-213): as above

Row | Binder | EC50
13 | B13 | 28.4 µg/mL

Target: T1, sclerostin (SOST)
Assay: ELONA; PBS, 1 mM MgCl2, RT
Details: tags: His6 (stated for the SELEX protein); ELONA used purified recombinant human sclerostin
Remark: another data set of the same source
Experimental: as §1, §3

Row | Binder | Kd
14 | B14 | 0.86 nM
15 | B15 | 0.22 nM
16 | B13 | 0.22 nM
17 | B16 | 0.52 nM
18 | B17 | 0.2 nM

Target: T2, sclerostin (SOST), expressed from …
Assay: cell_activity; TOP-Wnt luciferase reporter, MC3T3-E1
Details: not given
Remark: another data set of the same source
Experimental: as §2
The inhibition to sclerostin was dose dependent and the response was stable when the concentrations of aptscl 56 and 6 reached to 25 and 47.4 μg/ml, respectively. While treated with antibody, the response was still not stable with the concentration increasing to 20 mg/ml. Furthermore, the inhibition potency of aptscl 56, aptscl 6 and aptscl 3 was analyzed with non-linear curve fitting.

Row | Binder | EC50
19 | B2 | 36.8 µg/mL
20 | B18 | 19.7 µg/mL
21 | B19 | 18.2 µg/mL

Target: T1, sclerostin (SOST)
Assay: ELONA; PBS, 1 mM MgCl2, RT; Table 2 gives 0.02 nM
Details: tags: His6 (stated for the SELEX protein); ELONA used purified recombinant human sclerostin
Experimental: as §1, with “100 μl streptavidin-HRP/goat anti-human IgG Fc-HRP (1:10000 dilute into PBST+0.1% BSA) was added to each well and incubated for 30/60 min and washed with PBST+0.1% BSA for 4 times. 50 μl TMB was added to each well and incubated for 20 min. The reaction was stopped by adding 50 μl 2 M H₂SO₄.” left out, “A non-linear curve fitting model Hyperbl was used to plot is the binding curve. Equation of Hyperbl model is y=P1*x/(P2+x) and P2 is the Kd value.” left out

Row | Binder | Kd
22 | B19 | 0.04 nM

Target: T1, sclerostin (SOST)
Assay: ELONA; PBS, 1 mM MgCl2, RT
Details: tags: His6 (stated for the SELEX protein); ELONA used purified recombinant human sclerostin
Remark: another data set of the same source

Row | Binder | Kd
23 | B20 | 6.55 nM
24 | B21 | 0.54 nM

Target: T1, sclerostin (SOST)
Assay: ELONA; PBS, 1 mM MgCl2, 0.1% Tween 20, 0.1% BSA, RT
Details: tags: His6 (stated for the SELEX protein); ELONA used purified recombinant human sclerostin
Experimental: as §1, with “100 μl streptavidin-HRP/goat anti-human IgG Fc-HRP (1:10000 dilute into PBST+0.1% BSA) was added to each well and incubated for 30/60 min and washed with PBST+0.1% BSA for 4 times. 50 μl TMB was added to each well and incubated for 20 min. The reaction was stopped by adding 50 μl 2 M H₂SO₄.” left out, “A non-linear curve fitting model Hyperbl was used to plot is the binding curve. Equation of Hyperbl model is y=P1*x/(P2+x) and P2 is the Kd value.” left out

Row | Binder | Kd
25 | B18 | 43.1 nM

Target: T2, sclerostin (SOST), expressed from …
Assay: cell_activity; TOP-Wnt luciferase reporter; stated as inhibition potency
Details: not given

Row | Binder | EC50
26 | B20 | 14 µg/mL
27 | B21 | 11 µg/mL
